From article PMC5240591
Where two headings read alike, the source gives them in different places.

Tests used:
Test in all cases: fluorescence polarisation
[1] = biological target: T4 lysozyme mutant D70N, bimane-labelled at Cys151 (T151Bi) (bacteriophage T4) (UniProt P00720)
[2] = biological target: T4 lysozyme mutant L99A, bimane-labelled at Cys151 (T151Bi) (bacteriophage T4) (UniProt P00720)
[3] = biological target: T4 lysozyme mutant L99A/A130S, bimane-labelled at Cys151 (T151Bi) (bacteriophage T4) (UniProt P00720)
[4] = biological target: T4 lysozyme mutant L99A, bimane-labelled at Cys151 (T151Bi) (bacteriophage T4) (UniProt P00720); remark: listed apart in the source
[5] = biological target: T4 lysozyme mutant L99A, bimane-labelled at Cys151 (T151Bi) (bacteriophage T4) (UniProt P00720); remark: listed apart in the source
[6] = biological target: T4 lysozyme mutant L99A/A130S, bimane-labelled at Cys151 (T151Bi) (bacteriophage T4) (UniProt P00720); remark: listed apart in the source
[7] = biological target: T4 lysozyme mutant L99A, bimane-labelled at Cys151 (T151Bi) (bacteriophage T4) (UniProt P00720); remark: listed apart in the source
[8] = biological target: T4 lysozyme mutant L99A/A130S, bimane-labelled at Cys151 (T151Bi) (bacteriophage T4) (UniProt P00720); remark: listed apart in the source

human αA-crystallin (from UniProt P02489 1-173) (natural protein)
Kd [1]: 14.7 µM | Kd [2]: 2430 nM | Kd [3]: 2370 nM | Kd [4]: 1900 nM

human αB-crystallin (from UniProt P02511 1-175) (natural protein)
Kd [4]: 28000 nM

rat αA^ins-crystallin (from UniProt P24623 1-196) (natural protein)
Kd [1]: 6.82 µM | Kd [2]: 17 nM | stoichiometry N [2]: 0.33 | Kd [3]: 64 nM | stoichiometry N [3]: 0.32

triply phosphorylated analog (S15D/S78D/S82D) of human Hsp27 (from UniProt P04792 1-205) (natural protein)
Kd [4]: 38 nM

triply phosphorylated analog (S19D/S45D/S59D) of human αB-crystallin (from UniProt P02511 1-175) (natural protein)
Kd [4]: 71 nM

zebrafish αA-crystallin (from UniProt Q8UUZ6 1-173) (natural protein)
Kd [5]: 50.7 µM | Kd [6]: 20.9 µM | Kd [1]: 88.9 µM | Kd [2]: 8160 nM | Kd [3]: 6200 nM | stoichiometry N [3]: 1.25 | Kd [4]: 8320 nM

zebrafish αBa-crystallin, population αBa-S (from UniProt Q9PUR2 1-168) (natural protein)
Kd [5]: 0.92 µM | Kd [6]: 0.21 µM | Kd [1]: 1.87 µM | Kd [2]: 58 nM | stoichiometry N [2]: 0.47 | Kd [3]: 63 nM | stoichiometry N [3]: 0.65 | Kd [7]: 12 nM | stoichiometry N [7]: 0.64 | Kd [4]: 68 nM | stoichiometry N [4]: 0.65

zebrafish αBb-crystallin (from UniProt Q6DG35 1-165) (natural protein)
Kd [8]: 29 µM | Kd [6]: 4.94 µM | Kd [1]: 4.85 µM | Kd [2]: 1340 nM | Kd [3]: 120 nM | stoichiometry N [3]: 0.33
